In series [1] the target is T1, Tau441 (2N4R tau) (Homo sapiens, UniProt P10636-8 P10636-8:1-441). Briefly: dot blot, 250 nM. The note with it: tags: N-terminal His-tag, SignalChem (biotin-labelled for functional SELEX and BLI); label: FAM. As for the experimental part: (§1) FIG. 38A is the flow cytometry results analyzing primary binding between aptamer candidates and Tau 441. FIG. 38B is a dot blot assay showing aptamer binding specificity. FIG. 38A Primary binding analysis between aptamer candidates and Tau 441. FIG. 38B Aptamers binding specificity by dot blot assay. The nitrocellulose membranes were socked in methanol until becoming wet (1 min) then the membranes were washed with PBST solution for 5 mins. BSA, Casein, IgG, Tau and P-Tau (1 μg per protein) were respectively immobilized as striped dots on the NC membranes by air-drying. The membranes were blocked with 1% fat-free milk in PBST for 1 hour and incubated with heat-denatured aptamers (250 nM) labeled with FAM for 1 hour at room temperature. Control DNA were random sequence DNA with FAM label. The membranes were washed three times with TBST. Dots were scanned by Typhoon Imaging System (Amersham Biosciences).
T1 sequence (P10636 other isoform, or with tags, fused parts or gaps): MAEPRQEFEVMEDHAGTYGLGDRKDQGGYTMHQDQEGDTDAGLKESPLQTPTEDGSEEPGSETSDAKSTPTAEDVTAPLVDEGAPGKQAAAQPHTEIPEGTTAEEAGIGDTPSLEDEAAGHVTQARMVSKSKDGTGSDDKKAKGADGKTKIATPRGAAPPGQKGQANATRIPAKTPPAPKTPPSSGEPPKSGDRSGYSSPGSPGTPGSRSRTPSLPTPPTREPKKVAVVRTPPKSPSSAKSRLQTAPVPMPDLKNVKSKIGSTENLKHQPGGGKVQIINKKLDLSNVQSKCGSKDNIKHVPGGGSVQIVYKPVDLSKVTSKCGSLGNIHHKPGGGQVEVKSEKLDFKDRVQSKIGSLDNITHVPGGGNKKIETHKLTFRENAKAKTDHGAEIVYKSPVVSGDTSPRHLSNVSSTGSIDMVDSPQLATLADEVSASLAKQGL
(§2) The preliminary investigation of binding ability between aptamers and Tau441 was validated by flow cytometry. […] Furthermore, the binding specificity of the selected tau aptamers to full-length Tau441 protein was confirmed by dot blotting by incubating each of the FAM-labeled aptamers with nitrocellulose membranes which have already been immobilized with either target Tau441 protein or nontarget proteins (FIG. 38B). […] No cross-reactivity was observed between the aptamers and the nontarget proteins, including: α casein, β casein, BSA (bovine serum albumin), and IgG (immunoglobin G). Particularly, the membranes were blocked by milk after immobilizing with each protein which further illustrated the strong specificity of the obtained aptamers.

Series [2] concerns the target T2, Bovine serum albumin (BSA) (Bos taurus, UniProt P02769 P02769:25-607). The series can be described thus: dot blot. As to the method: as §1, §2
Series [3] concerns the target T1, Tau441 (2N4R tau). Briefly: dot blot, 100 nM; stronger than BW1, BW1a, BW1b. The note with it: tags: N-terminal His-tag, SignalChem (biotin-labelled for functional SELEX and BLI); label: 5' Cy5.
Description: The nitrocellulose membranes were socked in methanol till it becomes wet (1 min) then the membranes were washed with TBST solution for 5 mins. Tau protein (stripped band 0.5 μg) were dripped on the NC membranes in every dot and then waited to dry (2 mins). The membranes were blocked with 1% fat-free milk in TBST for 1 hour and were respectively incubated with series of heat denatured aptamers (250 nM) for 1 hour in blocking buffer (contain 0.5 mM Mg²⁺) at room temperature. Next the membrane was washed for three times by TBST, 5 min for each time. Dots were scanned simultaneously by a Typhoon Imaging System (Amersham Biosciences).
For series [4], the target named is T1, Tau441 (2N4R tau). The series can be described thus: EMSA; 400 nM aptamer, 0.2 mg/mL protein, 4 C. The note with it: tags: N-terminal His-tag, SignalChem (biotin-labelled for functional SELEX and BLI). As for the experimental part:
(§3) To determine the specificity of the circular aptamer against Tau441 protein, 5 μL of 400 nM Tau (IT2a) aptamer or circular aptamer were first incubated with 0.2 mg/mL target Tau441 protein or control proteins (S100B, BSA) at 4° C. for 30 minutes. Then, each sample was loaded onto an 8% native PAGE gel. The gel was run in 1×TBE at 70 V for 10 minutes and 150 V for 40 minutes. Finally, the gel was stained with Coomassie blue for protein detection and scanned in the fluorescein channel using Typhoon for aptamer detection.
(§4) After interaction, each sample was loaded onto the nondenaturing gel for protein detection with Coomassie Brilliant Blue staining (FIG. 13A) and aptamer fluorescence (FIG. 13B) detection. […] Five microliters of 400 nM Tau (IT2a) aptamer or circular aptamer was first incubated with 0.2 mg/mL target Tau441 protein or control proteins at 4° C. for 30 minutes. […] For FIG. 13A and FIG. 13 B, Lanes 1 and 6: Ladder; Lane 2: IT2a aptamer; Lane 3: IT2a aptamer+Tau441 (67 kDa); Lane 4: IT2a aptamer+S100B (9 kDa); Lane 5: IT2a aptamer+BSA (66 kDa); Lane 7: Circular aptamer; Lane 8: Circular aptamer+Tau411 (67 kDa); Lane 9: Circular aptamer+S100B (9 kDa); Lane 10: Circular aptamer+BSA (66 kDa).

Series [5] concerns the target T2, Bovine serum albumin (BSA). The series can be described thus: EMSA; specificity control. The note with it: label: one or two FITC-dT. As to the method:
as §3, §4
In general terms: Mobility shift assays separate free from complexed probe on a gel.

Series [6] concerns the target T2, Bovine serum albumin (BSA). The series can be described thus: EMSA; profile stated same as circular aptamer. The note with it: label: FITC-dT near 3' end; hairpin. As to the method:
as §3, §4

The target in series [7] is T1, Tau441 (2N4R tau). Briefly: dot blot, 250 nM; best flow cytometry shift; Kd only in figure. The note with it: tags: N-terminal His-tag, SignalChem (biotin-labelled for functional SELEX and BLI); label: FAM or 5' Cy5. As to the method: as §1
The preliminary investigation of binding ability between aptamers and Tau441 was validated by flow cytometry. […] Furthermore, the binding specificity of the selected tau aptamers to full-length Tau441 protein was confirmed by dot blotting by incubating each of the FAM-labeled aptamers with nitrocellulose membranes which have already been immobilized with either target Tau441 protein or nontarget proteins (FIG. 38B). […]
For orientation: Flow cytometry measures light scatter and fluorescence of single cells or particles in a stream.

T2 sequence (P02769 25-607, one chain of several): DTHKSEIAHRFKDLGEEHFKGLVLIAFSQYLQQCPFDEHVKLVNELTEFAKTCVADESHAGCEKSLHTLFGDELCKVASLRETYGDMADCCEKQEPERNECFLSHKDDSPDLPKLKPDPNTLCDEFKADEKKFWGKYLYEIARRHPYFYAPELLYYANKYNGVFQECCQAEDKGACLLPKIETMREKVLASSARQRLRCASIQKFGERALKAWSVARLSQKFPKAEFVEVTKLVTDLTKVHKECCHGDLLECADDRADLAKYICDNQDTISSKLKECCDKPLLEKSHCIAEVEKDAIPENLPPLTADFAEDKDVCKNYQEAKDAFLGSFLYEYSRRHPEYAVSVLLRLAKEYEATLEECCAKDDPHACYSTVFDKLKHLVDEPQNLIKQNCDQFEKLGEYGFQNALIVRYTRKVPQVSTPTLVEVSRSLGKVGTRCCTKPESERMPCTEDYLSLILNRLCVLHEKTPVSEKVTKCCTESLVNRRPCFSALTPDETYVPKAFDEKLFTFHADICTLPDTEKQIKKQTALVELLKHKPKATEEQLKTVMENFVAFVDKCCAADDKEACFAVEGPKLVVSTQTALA

B1: BW3 (ssDNA)
DNA: TCACCTGAGACTTGACGATGGAACTCCCCCCACCATTATCAGCGCACCACCATTGTAGAGTGCTATCGTCTGTCCA
On to B1, for which the binding result in series [1] is “binds”; in series [2] (label: FAM), “no binding”.

B2: BW1c (ssDNA)
DNA: GACGATAGCATCACTCCCCCCCACCTATTACATCATCATAAATTGAGTGCTATCGTC
Turning to B2, the binding result in series [3] is reported as “binds”.

B3: Circular Tau-TfR bispecific aptamer (structured_DNA)
DNA: TGACTGATTTACGGAAGCTGAATAAGGACTGCTTAGGATTGCGATGATTCAGCTTCCGTAAATCAGTCAGAAGGCGTGGTACCACGCTTTC
Turning to B3, the results for the binding result in series [4] (label: one or two FITC-dT) and in series [5] were “binds” and “no binding”, respectively.

B4: BW5 (ssDNA)
DNA: TCACCTGAGACTTGACGATGGTACGACGGCCCCCCGATTATGCGACTACTTGATTTGAGTGCTATCGTCTGTCCA
On to B4, for which the figures for the binding result in series [1] and in series [2] (label: FAM) were “binds” and “no binding”, respectively.

B5: BW2 (ssDNA)
DNA: TCACCTGAGACTTGACGATGGCCTCCCCCTCACGCACTCTTCCGTTTCTTCTTATCTGAGTGCTATCGTCTGTCCA
Turning to B5, the binding result in series [1] is listed as “binds”; in series [2] (label: FAM), “no binding”.

B6: BW6 (ssDNA)
DNA: TCACCTGAGACTTGACGATGGTCAGAACGACGCGCCCCCCACCTCATTCATTATTTTGAGTGCTATCGTCTGTCCA
Consider B6, for which the binding result in series [1] is “binds”; in series [2] (label: FAM), “no binding”.

B7: BW4 (ssDNA)
DNA: TCACCTGAGACTTGACGATGGTTTAACTCCCCCACGCCCCCCGCCAACCCATCTCCAGAGTGCTATCGTCTGTCCA
For B7, the values for the binding result in series [1] and in series [2] (label: FAM) were “binds” and “no binding”, respectively.

B8: IT2a Tau aptamer (13-base extended) (ssDNA)
DNA: TGACTGATTTACGGAAGCTGAATAAGGACTGCTTAGGATTGCGATGATTCAGCTTC
Regarding B8, the binding result is “binds” in series [4] (label: FITC-dT near 3' end, hairpin) and “no binding” in series [6].

B9: BW10 (ssDNA)
DNA: TCACCTGAGACTTGACGATGGCAATCCCCCCGACACCGAATCCTAAGCGAACAACGCGAGTGCTATCGTCTGTCCA
Turning to B9, the binding result in series [1] is listed as “binds”; in series [2] (label: FAM), “no binding”.

B10: BW8 (ssDNA)
DNA: TCACCTGAGACTTGACGATGGCACTACCCCTCCCTACTAAGCACGGTATCTTGTACTGAGTGCTATCGTCTGTCCA
Turning to B10, the binding result in series [1] is “binds”; in series [2] (label: FAM), “no binding”.

B11: BW7 (ssDNA)
DNA: TCACCTGAGACTTGACGATGGTGACCACCCCCCACGCACACACACCTCTTCCATCCTGAGTGCTATCGTCTGTCCA
With B11, the binding result in series [1] is “binds”; in series [2] (label: FAM), “no binding”.

B12: BW1 (ssDNA)
DNA: TCACCTGAGACTTGACGATGGCATCACTCCCCCCCACCTATTACATCATCATAAATTGAGTGCTATCGTCTGTCCA
Regarding B12, the binding result is “binds” in series [7] and “no binding” in series [2] (label: FAM or 5' Cy5).

B13: BW9 (ssDNA)
DNA: TCACCTGAGACTTGACGATGGGAACAAACACCGCGACCACCCCCCCACTTAACTCCTGAGTGCTATCGTCTGTCCA
Consider B13, for which the binding result in series [1] is recorded as “binds”; in series [2] (label: FAM), “no binding”.
